Data: the supplement of paper PMC5998384

How the values were obtained:
HeLa Kyoto [1] = test: solubility in G1/S (NP-40 vs SDS abundance) (log2 ratio); higher = more soluble; conditions: cell cycle stage: G1/S
HeLa Kyoto [2] = test: melting temperature (median over replicates), in situ; higher = more thermally stable
HeLa Kyoto [3] = test: thermal stability score vs G1/S (z-score of summed log2 fold changes over temperatures); higher = more thermally stable than in G1/S
HeLa Kyoto [4] = test: solubility change mitosis vs G1/S (difference of NP-40 vs SDS log2 ratios) (log2 ratio difference); higher = more soluble in mitosis
[5] = cell cycle stage: early G1 (4.5 h after nocodazole release)
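Throughout, for melting temperature (median over replicates), in situ: HeLa Kyoto cells synchronized by double thymidine or nocodazole block, proteins quantified by TMT10plex mass spectrometry, three independent biological replicates.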
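Throughout, for solubility change mitosis vs G1/S (difference of NP-40 vs SDS log2 ratios): synchronized HeLa Kyoto cells (double thymidine block for G1/S, nocodazole release for mitosis), protein amounts in NP-40 versus SDS lysates quantified by mass spectrometry, three biological replicates.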
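Throughout, for solubility in G1/S (NP-40 vs SDS abundance): HeLa Kyoto cells arrested at G1/S by double thymidine block, proteins quantified by TMT10plex mass spectrometry in mild NP-40 versus SDS extracts, three biological replicates.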
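Throughout, for thermal stability score vs G1/S (z-score of summed log2 fold changes over temperatures): synchronized HeLa Kyoto cells, proteins quantified by TMT10plex mass spectrometry, three biological replicates, mitosis taken 0.5 h after nocodazole release, G1/S directly after double thymidine block.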

Sequence	solubility in G1/S (log2) (HeLa Kyoto [1])	melting temperature (HeLa Kyoto [2]; cell cycle stage: G1/S)	melting temperature (HeLa Kyoto [2]; cell cycle stage: mitosis)	thermal stability score (HeLa Kyoto [3]; [5])	thermal stability score (HeLa Kyoto [3]; cell cycle stage: mitosis)	solubility change mitosis (log2) (HeLa Kyoto [4])
MAASCLVLLALCLLLPLLLLGGWKRWRRGRAARHVVAVVLGDVGRSPRMQYHALSLAMHGFSVTLLGFCNSKPHDELLQNNRIQIVGLTELQSLAVGPRVFQYGVKVVLQAMYLLWKLMWREPGAYIFLQNPPGLPSIAVCWFVGCLCGSKLVIDWHNYGYSIMGLVHGPNHPLVLLAKWYEKFFGRLSHLNLCVTNAMREDLADNWHIRAVTVYDKPASFFKETPLDLQHRLFMKLGSMHSPFRARSEPEDPVTERSAFTERDAGSGLVTRLRERPALLVSSTSWTEDEDFSILLAALEKFEQLTLDGHNLPSLVCVITGKGPLREYYSRLIHQKHFQHIQVCTPWLEAEDYPLLLGSADLGVCLHTSSSGLDLPMKVVDMFGCCLPVCAVNFKCLHELVKHEENGLVFEDSEELAAQLQMLFSNFPDPAGKLNQFRKNLRESQQLRWDESWVQTVLPLVMDT [ALG1]	-0.369	52.4 °C	52.6 °C	0.156	-0.276	-0.125
MAASGESGTSGGGGSTEEAFMTFYSEVKQIEKRDSVLTSKNQIERLTRPGSSYFNLNPFEVLQIDPEVTDEEIKKRFRQLSILVHPDKNQDDADRAQKAFEAVDKAYKLLLDQEQKKRALDVIQAGKEYVEHTVKERKKQLKKEGKPTIVEEDDPELFKQAVYKQTMKLFAELEIKRKEREAKEMHERKRQREEEIEAQEKAKREREWQKNFEESRDGRVDSWRNFQANTKGKKEKKNRTFLRPPKVKMEQRE [DNAJC8]	0.748	50.1 °C	51.5 °C	1.39	0.712	0.145
MAASLRLLGAASGLRYWSRRLRPAAGSFAAVCSRSVASKTPVGFIGLGNMGNPMAKNLMKHGYPLIIYDVFPDACKEFQDAGEQVVSSPADVAEKADRIITMLPTSINAIEAYSGANGILKKVKKGSLLIDSSTIDPAVSKELAKEVEKMGAVFMDAPVSGGVGAARSGNLTFMVGGVEDEFAAAQELLGCMGSNVVYCGAVGTGQAAKICNNMLLAISMIGTAEAMNLGIRLGLDPKLLAKILNMSSGRCWSSDTYNPVPGVMDGVPSANNYQGGFGTTLMAKDLGLAQDSATSTKSPILLGSLAHQIYRMMCAKGYSKKDFSSVFQFLREEETF [HIBADH]	0.469	55.4 °C	56.9 °C	0.844	-0.199	-0.0734
MAASPGPAGVGGAGAVYGSGSSGFALDSGLEIKTRSVEQTLLPLVSQITTLINHKDNTKKSDKTLQAIQRVGQAVNLAVGRFVKVGEAIANENWDLKEEINIACIEAKQAGETIAALTDITNLNHLESDGQITIFTDKTGVIKAARLLLSSVTKVLLLADRVVIKQIITSRNKVLATMERLEKVNSFQEFVQIFSQFGNEMVEFAHLSGDRQNDLKDEKKKAKMAAARAVLEKCTMMLLTASKTCLRHPNCESAHKNKEGVFDRMKVALDKVIEIVTDCKPNGETDISSISIFTGIKEFKMNIEALRENLYFQSKENLSVTLEVILERMEDFTDSAYTSHEHRERILELSTQARMELQQLISVWIQAQSKKTKSIAEELELSILKISHSLNELKKELHSTATQLAADLLKYHADHVVLKALKLTGVEGNLEALAEYACKLSEQKEQLVETCRLLRHISGTEPLEITCIHAEETFQVTGQQIISAAETLTLHPSSKIAKENLDVFCEAWESQISDMSTLLREINDVFEGRRGEKYGYLSLPKPMKNNANLKSLKPDKPDSEEQAKIAKLGLKLGLLTSDADCEIEKWEDQENEIVQYGRNMSSMAYSLYLFTRGEGPLKTSQDLIHQLEVFAAEGLKLTSSVQAFSKQLKDDDKLMLLLEINKLIPLCHQLQTVTKTSLQNKVFLKVDKCITKTRSMMALLVQLLSLCYKLLKKLQMENNGWVSVTNKDTMDSKT [CTNNAL1]	0.208	47.7 °C	48.9 °C	0.258	1.63	-0.111
MAASSISSPWGKHVFKAILMVLVALILLHSALAQSRRDFAPPGQQKREAPVDVLTQIGRSVRGTLDAWIGPETMHLVSESSSQVLWAISSAISVAFFALSGIAAQLLNALGLAGDYLAQGLKLSPGQVQTFLLWGAGALVVYWLLSLLLGLVLALLGRILWGLKLVIFLAGFVALMRSVPDPSTRALLLLALLILYALLSRLTGSRASGAQLEAKVRGLERQVEELRWRQRRAAKGARSVEEE [TMEM109]	-0.0444	54.6 °C	53.8 °C	-3.9	-4.03	-0.14
MAASTGYVRLWGAARCWVLRRPMLAAAGGRVPTAAGAWLLRGQRTCDASPPWALWGRGPAIGGQWRGFWEASSRGGGAFSGGEDASEGGAEEGAGGAGGSAGAGEGPVITALTPMTIPDVFPHLPLIAITRNPVFPRFIKIIEVKNKKLVELLRRKVRLAQPYVGVFLKRDDSNESDVVESLDEIYHTGTFAQIHEMQDLGDKLRMIVMGHRRVHISRQLEVEPEEPEAENKHKPRRKSKRGKKEAEDELSARHPAELAMEPTPELPAEVLMVEVENVVHEDFQVTEEVKALTAEIVKTIRDIIALNPLYRESVLQMMQAGQRVVDNPIYLSDMGAALTGAESHELQDVLEETNIPKRLYKALSLLKKEFELSKLQQRLGREVEEKIKQTHRKYLLQEQLKIIKKELGLEKDDKDAIEEKFRERLKELVVPKHVMDVVDEELSKLGLLDNHSSEFNVTRNYLDWLTSIPWGKYSNENLDLARAQAVLEEDHYGMEDVKKRILEFIAVSQLRGSTQGKILCFYGPPGVGKTSIARSIARALNREYFRFSVGGMTDVAEIKGHRRTYVGAMPGKIIQCLKKTKTENPLILIDEVDKIGRGYQGDPSSALLELLDPEQNANFLDHYLDVPVDLSKVLFICTANVTDTIPEPLRDRMEMINVSGYVAQEKLAIAERYLVPQARALCGLDESKAKLSSDVLTLLIKQYCRESGVRNLQKQVEKVLRKSAYKIVSGEAESVEVTPENLQDFVGKPVFTVERMYDVTPPGVVMGLAWTAMGGSTLFVETSLRRPQDKDAKGDKDGSLEVTGQLGEVMKESARIAYTFARAFLMQHAPANDYLVTSHIHLHVPEGATPKDGPSAGCTIVTALLSLAMGRPVRQNLAMTGEVSLTGKILPVGGIKEKTIAAKRAGVTCIVLPAENKKDFYDLAAFITEGLEVHFVEHYREIFDIAFPDEQAEALAVER [LONP1]	0.12	54.4 °C	53.6 °C	-0.58	-1.35	-0.0806
MAASWRLGCDPRLLRYLVGFPGRRSVGLVKGALGWSVSRGANWRWFHSTQWLRGDPIKILMPSLSPTMEEGNIVKWLKKEGEAVSAGDALCEIETDKAVVTLDASDDGILAKIVVEEGSKNIRLGSLIGLIVEEGEDWKHVEIPKDVGPPPPVSKPSEPRPSPEPQISIPVKKEHIPGTLRFRLSPAARNILEKHSLDASQGTATGPRGIFTKEDALKLVQLKQTGKITESRPTPAPTATPTAPSPLQATAGPSYPRPVIPPVSTPGQPNAVGTFTEIPASNIRRVIAKRLTESKSTVPHAYATADCDLGAVLKVRQDLVKDDIKVSVNDFIIKAAAVTLKQMPDVNVSWDGEGPKQLPFIDISVAVATDKGLLTPIIKDAAAKGIQEIADSVKALSKKARDGKLLPEEYQGGSFSISNLGMFGIDEFTAVINPPQACILAVGRFRPVLKLTEDEEGNAKLQQRQLITVTMSSDSRVVDDELATRFLKSFKANLENPIRLA [PDHX]	0.248	53.5 °C	52.9 °C	-1.5	-1.54	-0.00638
MAATELRGVVGPGPAAIAALGGGGAGPPVVGGGGGRGDAGPGSGAASGTVVAAAAGGPGPGAGGVAAAGPAPAPPTGGSGGSGAGGSGSAREGWLFKWTNYIKGYQRRWFVLSNGLLSYYRSKAEMRHTCRGTINLATANITVEDSCNFIISNGGAQTYHLKASSEVERQRWVTALELAKAKAVKMLAESDESGDEESVSQTDKTELQNTLRTLSSKVEDLSTCNDLIAKHGTALQRSLSELESLKLPAESNEKIKQVNERATLFRITSNAMINACRDFLMLAQTHSKKWQKSLQYERDQRIRLEETLEQLAKQHNHLERAFRGATVLPANTPGNVGSGKDQCCSGKGDMSDEDDENEFFDAPEIITMPENLGHKRTGSNISGASSDISLDEQYKHQLEETKKEKRTRIPYKPNYSLNLWSIMKNCIGKELSKIPMPVNFNEPLSMLQRLTEDLEYHELLDRAAKCENSLEQLCYVAAFTVSSYSTTVFRTSKPFNPLLGETFELDRLEENGYRSLCEQVSHHPPAAAHHAESKNGWTLRQEIKITSKFRGKYLSIMPLGTIHCIFHATGHHYTWKKVTTTVHNIIVGKLWIDQSGEIDIVNHKTGDKCNLKFVPYSYFSRDVARKVTGEVTDPSGKVHFALLGTWDEKMECFKVQPVIGENGGDARQRGHEAEESRVMLWKRNPLPKNAENMYYFSELALTLNAWESGTAPTDSRLRPDQRLMENGRWDEANAEKQRLEEKQRLSRKKREAEAMKATEDGTPYDPYKALWFERKKDPVTKELTHIYRGEYWECKEKQDWSSCPDIF [OSBP]	-0.0183	52.1 °C	51.9 °C	-1.23	-0.683	-0.212
MAATLGPLGSWQQWRRCLSARDGSRMLLLLLLLGSGQGPQQVGAGQTFEYLKREHSLSKPYQGVGTGSSSLWNLMGNAMVMTQYIRLTPDMQSKQGALWNRVPCFLRDWELQVHFKIHGQGKKNLHGDGLAIWYTKDRMQPGPVFGNMDKFVGLGVFVDTYPNEEKQQERVFPYISAMVNNGSLSYDHERDGRPTELGGCTAIVRNLHYDTFLVIRYVKRHLTIMMDIDGKHEWRDCIEVPGVRLPRGYYFGTSSITGDLSDNHDVISLKLFELTVERTPEEEKLHRDVFLPSVDNMKLPEMTAPLPPLSGLALFLIVFFSLVFSVFAIVIGIILYNKWQEQSRKRFY [LMAN2L]	-0.0714	53.7 °C	54.1 °C	-0.409	-1.27	-0.146
MAAVAAVAARRRRSWASLVLAFLGVCLGITLAVDRSNFKTCEESSFCKRQRSIRPGLSPYRALLDSLQLGPDSLTVHLIHEVTKVLLVLELQGLQKNMTRFRIDELEPRRPRYRVPDVLVADPPIARLSVSGRDENSVELTMAEGPYKIILTARPFRLDLLEDRSLLLSVNARGLLEFEHQRAPRVSQGSKDPAEGDGAQPEETPRDGDKPEETQGKAEKDEPGAWEETFKTHSDSKPYGPMSVGLDFSLPGMEHVYGIPEHADNLRLKVTEGGEPYRLYNLDVFQYELYNPMALYGSVPVLLAHNPHRDLGIFWLNAAETWVDISSNTAGKTLFGKMMDYLQGSGETPQTDVRWMSETGIIDVFLLLGPSISDVFRQYASLTGTQALPPLFSLGYHQSRWNYRDEADVLEVDQGFDDHNLPCDVIWLDIEHADGKRYFTWDPSRFPQPRTMLERLASKRRKLVAIVDPHIKVDSGYRVHEELRNLGLYVKTRDGSDYEGWCWPGSAGYPDFTNPTMRAWWANMFSYDNYEGSAPNLFVWNDMNEPSVFNGPEVTMLKDAQHYGGWEHRDVHNIYGLYVHMATADGLRQRSGGMERPFVLARAFFAGSQRFGAVWTGDNTAEWDHLKISIPMCLSLGLVGLSFCGADVGGFFKNPEPELLVRWYQMGAYQPFFRAHAHLDTGRREPWLLPSQHNDIIRDALGQRYSLLPFWYTLLYQAHREGIPVMRPLWVQYPQDVTTFNIDDQYLLGDALLVHPVSDSGAHGVQVYLPGQGEVWYDIQSYQKHHGPQTLYLPVTLSSIPVFQRGGTIVPRWMRVRRSSECMKDDPITLFVALSPQGTAQGELFLDDGHTFNYQTRQEFLLRRFSFSGNTLVSSSADPEGHFETPIWIERVVIIGAGKPAAVVLQTKGSPESRLSFQHDPETSVLVLRKPGINVASDWSIHLR [GANAB]	-0.0187	53.6 °C	54.2 °C	3.69	5.36	-0.155
